Test results published in patent publication US20240124597A1 (Bristol-Myers Squibb, published 2024).

B1: Y12XX-hz42-P238K (antibody, human IgG1, kappa, V domains shown)
VH: QVQLVQSGAEVKKPGSSVKVSCKASGYAFTSYWMHWVRQAPGQGLEWMGQINPTTGRSQYNEKFKTRVTITADKSTSTAYMELSSLRSEDTAVYYCARWGLQPFAYWGQGTLVTVSS
VL: EIVMTQSPATLSVSPGERATLSCKASQDVSTAVAWYQQKPGQAPRLLIYSASYRYTGIPARFSGSGSGTEFTLTISSLQSEDFAVYYCQQHYSTPWTFGGGTKVEIKR
notes: also called Vh-hz14;Vk-hz3
B2: Y1268-hIgG1f (antibody, V domains shown)
VH: QVQLQQPGAELVKPGASVRLSCKASGYAFTSYWMHWVKQRPGQGLEWIGQINPSNGRSQYNEKFKTMATLTVDKSSSTAYIQLSSLTSEDSAVYYCARWGLQPFAYWGQGTLVTVSA
VL: DIVMTQSHKFMSTSVGDRVSITCKASQDVSTAVAWYQQKPGQSPKLLIYSASYRYTGVPDRFTGSGSGTDFTFTISSVQAEDLAVYYCQQHYSTPWTFGGGTKLEIK
notes: Purified chimeric antibody with human wild-type IgG1f; also called purified chimeric Y1268; Chim-P
B3: Y1258-hIgG1f (antibody)
heavy: not shown
VL: DIVMTQSHKFMSTSVGDRVSITCKASQDVSTAVAWYQQKPGQSPKLLIYSASYRYTGVPDRFTGSGSGTDFTFTISSVQAEDLAVYYCQQHYSTPWTFGGGTKLEIK
notes: Purified chimeric antibody, mouse variable regions with human wild-type IgG1f; also called purified chimeric Y1258; Chim-P
B4: Y1262-hIgG1f (antibody)
heavy: not shown
VL: DIVMTQSHKFMSTSVGDRVSITCKASQDVSTAVAWYQQKPGQSPKLLIYSASYRYTGVPDRFTGSGYGTDFTFTISSVQAEDLAVYYCQQHYSTPWTFGGGTKLEIK
notes: Purified chimeric antibody with human wild-type IgG1f; also called purified chimeric Y1262; Y1632-hIgG1f
B5: Y12XX-hz34 (antibody, human IgG1, kappa, V domains shown)
VH: QVQLVQSGAEVKKPGSSVKVSCKASGYAFTSYWMHWVRQRPGQGLEWIGYINPTTGYSAYNQKFKDKATLTADKSTSTAYMELNSLRSEDTAVYYCARWDPRPFAYWGQGTLVTVSS
VL: EIVMTQSPATLSVSPGERATLSCKASQDVSTAVAWYQQKPGQAPRLLIYSASYRYTGIPARFSGSGSGTEFTLTISSLQSEDFAVYYCQQHYSTPWTFGGGTKVEIKR
notes: Humanized, IgG1-P238K; supernatant sample
B6: Y12XX-hz19 (antibody, human IgG1, kappa, V domains shown)
VH: QVQLVQSGAEVKKPGSSVKVSCKASGYAFTSYWMHWVRQRPGQGLEWMGYINPTTGYSAYNQKFKDKATLTADKSTSTAYMELSSLRSEDTAVYYCARWDPRPFAYWGQGTLVTVSS
VL: DIQMTQSPSFLSASVGDRVTITCKASQDVSTAVAWYQQKPGKAPKLLIYSASYRYTGVPSRFSGSGSGTDFTLTISSLQPEDFATYYCQQHYSTPWTFGGGTKVEIKR
notes: as for B5
B7: Y12XX-hz22 (antibody, human IgG1, kappa, V domains shown)
VH: QVQLVQSGAEVKKPGSSVKVSCKASGYAFTSYWMHWVRQAPGQGLEWMGYINPTTGYSAYNQKFKDKATLTADKSTSTAYMELSSLRSEDTAVYYCARWDARPFAYWGQGTLVTVSS
VL: DIQMTQSPSFLSASVGDRVTITCKASQDVSTAVAWYQQKPGKAPKLLIYSASYRYTGVPSRFSGSGSGTDFTLTISSLQPEDFATYYCQQHYSTPWTFGGGTKVEIKR
notes: as for B5
B8: Y12XX-hz20 (antibody, human IgG1, kappa, V domains shown)
VH: QVQLVQSGAEVKKPGSSVKVSCKASGYAFTSYWMHWVRQRPGQGLEWIGYINPTTGYSAYNQKFKDKATLTADKSTSTAYMELNSLRSEDTAVYYCARWDPRPFAYWGQGTLVTVSS
VL: DIQMTQSPSFLSASVGDRVTITCKASQDVSTAVAWYQQKPGKAPKLLIYSASYRYTGVPSRFSGSGSGTDFTLTISSLQPEDFATYYCQQHYSTPWTFGGGTKVEIKR
notes: as for B5

target: T1, human-CD40-monomer protein (human, UniProt P25942 21-193, limits assumed); assay: SPR, purified Ab captured on protein A, hCD40 monomer 500-3.9 nM, 25 C, 1:1 Langmuir fit
T1 construct: Soluble monomer generated in house, used as SPR analyte; also called hCD40; hCD40-monomer
T1 sequence (P25942 21-193 limits assumed): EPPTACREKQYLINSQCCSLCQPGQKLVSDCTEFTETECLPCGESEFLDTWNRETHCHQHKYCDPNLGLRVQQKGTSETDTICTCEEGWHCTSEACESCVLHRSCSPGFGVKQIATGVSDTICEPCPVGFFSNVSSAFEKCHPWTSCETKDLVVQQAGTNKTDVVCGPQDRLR
Method: (§1) Based on the sequences, titer, and SPR binding data, antibodies were selected for larger scale expression, purification, and further characterization. SPR analysis using purified antibodies was performed by capturing antibodies on a protein A surface, with binding of a 500-3.9 nM (2:1) dilution series of human-CD40 monomer, at either 25° C. or 37° C. in PBS-T pH 7.1 buffer; the titration data was fit to a 1:1 Langmuir model.
(§2) SPR data are fit to a 1:1 Langmuir model using BIAcore™ T200 evaluation software to obtain values for the association rate constant (ka), dissociation rate constant (kd) and dissociation constant (KD).

| Kd | koff | kon | Binder |
| --- | --- | --- | --- |
| 2.3 nM | 0.00073 s⁻¹ | 310000 M⁻¹ s⁻¹ | B1 |

target: T1, human-CD40-monomer protein; assay: SPR, Ab captured on protein A, hCD40 monomer 500 and 50 nM, 1:1 fit; purified
Method: (§3) Titer analysis was performed using Biolayer Interferometry (BLI) on an Octet RED instrument (Fortebio) by capturing antibodies from supernatant using protein A sensor tips and measuring capture response with respect to a standard curve obtained using a control antibody sample. SPR data were obtained by capturing antibodies on a protein A surface and testing the binding of 500 nM and 50 nM injections of human-CD40 analyte, using a BIAcore™ T200 instrument (GE Healthcare). The kinetic data for the two concentrations of hCD40-monomer were fit to a 1:1 Langmuir model, to yield estimates of the kinetic and affinity values for these interactions, and for comparison of the different molecules.

| Kd | koff | kon | Binder |
| --- | --- | --- | --- |
| 3.2 nM | 0.0013 s⁻¹ | 400000 M⁻¹ s⁻¹ | B2 |
| 0.01 nM | 5.9e-07 s⁻¹ | 58000 M⁻¹ s⁻¹ | B3 |
| 12 nM | 0.0055 s⁻¹ | 480000 M⁻¹ s⁻¹ | B4 |

target: T1, human-CD40-monomer protein; assay: SPR, Ab captured on protein A, hCD40 monomer 500 and 50 nM, 1:1 fit; supernatant
Method: as §3

| Kd | koff | kon | Binder |
| --- | --- | --- | --- |
| 3.5 nM | 0.00083 s⁻¹ | 240000 M⁻¹ s⁻¹ | B1 |
| 7.6 nM | 0.0028 s⁻¹ | 370000 M⁻¹ s⁻¹ | B5 |
| 6.2 nM | 0.0023 s⁻¹ | 380000 M⁻¹ s⁻¹ | B6 |
| 210 nM | 0.079 s⁻¹ | 370000 M⁻¹ s⁻¹ | B7 |
| 8.2 nM | 0.0025 s⁻¹ | 310000 M⁻¹ s⁻¹ | B8 |

target: T1, human-CD40-monomer protein; assay: SPR, purified Ab captured on protein A, hCD40 monomer 500-3.9 nM, 37 C, 1:1 Langmuir fit
Method: as §1, §2

| Kd | koff | kon | Binder |
| --- | --- | --- | --- |
| 5.5 nM | 0.0034 s⁻¹ | 630000 M⁻¹ s⁻¹ | B1 |

target: human CD40 on cells (tonsillar B cells, immature dendritic cells, Ramos-Blue cells) (human, UniProt P25942 21-277); assay: cell-based or functional assay
Sequence (P25942 21-277 limits assumed): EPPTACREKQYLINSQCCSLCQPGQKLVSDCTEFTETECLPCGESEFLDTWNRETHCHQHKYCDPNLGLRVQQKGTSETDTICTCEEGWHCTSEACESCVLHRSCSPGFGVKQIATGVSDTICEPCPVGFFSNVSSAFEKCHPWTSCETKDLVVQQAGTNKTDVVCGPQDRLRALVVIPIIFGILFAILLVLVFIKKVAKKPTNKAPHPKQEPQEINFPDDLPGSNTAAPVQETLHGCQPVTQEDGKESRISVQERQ

| Inhibition of B cell proliferation induced by soluble CD40L trimer, Average (IC50 ng/ml) | Binder |
| --- | --- |
| 12.1 ng/mL | B1 |
